Reference: patent publication US20100278838A1, “EPHA2 MONOCLONAL ANTIBODIES AND METHODS OF USE THEREOF” (MEDIMMUNE, LLC, priority 2002, published 2010)
“Also recorded” adds a separate entry of the source.

Assays:
[1] = test system: MDA-MB-231 breast cancer cells implanted orthotopically; assay: Tumor growth in vivo, MDA-MB-231 implanted orthotopically; set-up: species or system athymic mice; settings: 6mg/kg intraperitoneally twice a week for 3 weeks; versus PBS or 1A7
Description: FIGS. 7A-7D: The EphA2 antibodies, EA2, Eph099B-208.261, and Eph099B-233.152, inhibit tumor cell growth in vivo. MDA-MB-231 breast cancer cells were implanted (A) orthotopically or (B) subcutaneously into athymic mice. (C) A549 lung cancer cells were implanted subcutaneously into athymic mice. After the tumors had grown to an average volume of 100 mm^3, mice were administered 6 mg/kg of the indicated antibody or negative control (PBS or 1A7 antibody) intraperitoneally twice a week for 3 weeks. Tumor growth was assessed and expressed as a ratio of the tumor volume divided by initial tumor volume (100 mm^3). (D) MDA-MB-231 breast cancer cells were implanted subcutaneously into athymic mice. After the tumors had grown to an average volume of 100 mm^3, mice were administered 6 mg/kg of the indicated antibody or negative control intraperitoneally twice a week for 3 weeks. Total tumor volume was determined after sacrifice. Negative control is black, EA2 is white, Eph099B-208.261 is dark grey, and Eph099B-233.152 is light grey.
5×10^6MDA-MB-231 breast cancer cells were implanted orthotopically or subcutaneously and 5×10^6 A549 lung cancer cells were implanted subcutaneously into athymic mice. […] Tumor growth was assessed and expressed either as a ratio of the tumor volume divided by initial tumor volume (100 mm^3) or as total tumor volume. […]

[2] = test system: EphA2 on non-transformed MCF-10A cells; assay: Immunofluorescence binding to non-transformed cells with or without EGTA; assay type: cell-based; settings: 4mM EGTA for 20 min
Description: (A, B) Non-transformed MCF-10A cells were labeled with EA2 at 4° C. either before (A) or after (B) treatment with EGTA and prior to fixation and immunolabeling with fluorophore-conjugated anti-mouse IgG. (C, D) Non-transformed MCF-10A (C) or transformed MDA-MB-231 (D) cells were labeled with EA2 either before (middle) or after (top) treatment with EGTA. Control cells were incubated with secondary antibody alone (bottom). The amount of EA2-EphA2 binding was measured using flow cytometry.
The epitopes of EphA2 antibodies were characterized. Non-transformed MCF-10A cells or transformed MDA-MB-231 cells were incubated with 10 μg/ml Eph099B-233.152 or EA2 at 4° C. for 30 min. prior to fixation in a 3% formalin solution and immunolabeling with fluorophore-conjugated anti-mouse IgG. […] Treatment of non-transformed MCF-10A cells with 4mM EGTA for 20 min. dissociated the cells.

control MCF-7 cells = assay: Soft agar colonization of control MCF-7 cells; assay type: cell-based; settings: EA2 10 μg/ml, tamoxifen 1 μM
Description: FIGS. 11A-11B: EphA2 overexpression decreases tamoxifen sensitivity. (A) 1×10^5 MCF-7 or MCF-7^EphA2 cells were suspended in soft agar in the presence of 1 μM tamoxifen (TAM) and or 1 μM 17β-estradiol and colony formation was evaluated microscopically after 14 days. (B) MCF-7 (circles) or MCF-7^EphA2 cells (squares) were implanted into the mammary fatpad (n=15 mice per group) in the presence of supplemental estrogen. Tamoxifen treatment was initiated 17 days post-implantation. Tumor volume of tamoxifen treated (black circles and squares) and saline treated (white circles and squares) animals was measured at the indicated time.
FIGS. 13A-13C: EphA2 agonistic antibody EA2 decreases malignant growth. MCF-7^EPhA2 cells were incubated in the presence of 3 μg/ml of EA2 for the time indicated prior to sample extraction and western blot analyses with an EphA2-specific antibody (D7). […]
EphA2 overexpression increased malignant growth (FIGS. 8A-8B). […] Colony formation in soft agar was performed as previously described (Zelinski et al., 2001, Cancer Res. 61:2301-6) and scored microscopically, defining clusters of at least three cells as a positive. […] Error bars represent the standard error of the mean of at least three different experiments as determined using Microsoft Excel software.
Sensitivity of MCF-7^EphA2 cells to tamoxifen was measured. […]

EphA2 = EphA2 (Homo sapiens, UniProt P29317); assay: EphA2 expression level in MCF-7^EphA2 cells after EA2 (western blot); assay type: cell-based; settings: 3 μg/ml EA2
Description: FIGS. 13A-13C: EphA2 agonistic antibody EA2 decreases malignant growth. MCF-7^EPhA2 cells were incubated in the presence of 3 μg/ml of EA2 for the time indicated prior to sample extraction and western blot analyses with an EphA2-specific antibody (D7). (B) The membrane was stripped and re-probed with a β-catenin-specific antibody as a loading control. (C) 1×10^5 control or MCF-7^EphA2 cells were suspended in soft agar in the presence or absence of tamoxifen (TAM, 1 μM) and EphA2 agonistic antibody (EA2, 10 μg/ml).
Growth MCF-7^EphA2 cells which had decreased EphA2 expression levels was assayed in soft agar. The EphA2 monoclonal antibody EA2 induced EphA2 activation and subsequent degradation. […] Whereas EA2 decreased soft agar colonization (by 19%), the combination of EA2 and tamoxifen caused a much more dramatic (>80%) decrease in soft agar colonization.

Chain of EphA2 (P29317 24-976): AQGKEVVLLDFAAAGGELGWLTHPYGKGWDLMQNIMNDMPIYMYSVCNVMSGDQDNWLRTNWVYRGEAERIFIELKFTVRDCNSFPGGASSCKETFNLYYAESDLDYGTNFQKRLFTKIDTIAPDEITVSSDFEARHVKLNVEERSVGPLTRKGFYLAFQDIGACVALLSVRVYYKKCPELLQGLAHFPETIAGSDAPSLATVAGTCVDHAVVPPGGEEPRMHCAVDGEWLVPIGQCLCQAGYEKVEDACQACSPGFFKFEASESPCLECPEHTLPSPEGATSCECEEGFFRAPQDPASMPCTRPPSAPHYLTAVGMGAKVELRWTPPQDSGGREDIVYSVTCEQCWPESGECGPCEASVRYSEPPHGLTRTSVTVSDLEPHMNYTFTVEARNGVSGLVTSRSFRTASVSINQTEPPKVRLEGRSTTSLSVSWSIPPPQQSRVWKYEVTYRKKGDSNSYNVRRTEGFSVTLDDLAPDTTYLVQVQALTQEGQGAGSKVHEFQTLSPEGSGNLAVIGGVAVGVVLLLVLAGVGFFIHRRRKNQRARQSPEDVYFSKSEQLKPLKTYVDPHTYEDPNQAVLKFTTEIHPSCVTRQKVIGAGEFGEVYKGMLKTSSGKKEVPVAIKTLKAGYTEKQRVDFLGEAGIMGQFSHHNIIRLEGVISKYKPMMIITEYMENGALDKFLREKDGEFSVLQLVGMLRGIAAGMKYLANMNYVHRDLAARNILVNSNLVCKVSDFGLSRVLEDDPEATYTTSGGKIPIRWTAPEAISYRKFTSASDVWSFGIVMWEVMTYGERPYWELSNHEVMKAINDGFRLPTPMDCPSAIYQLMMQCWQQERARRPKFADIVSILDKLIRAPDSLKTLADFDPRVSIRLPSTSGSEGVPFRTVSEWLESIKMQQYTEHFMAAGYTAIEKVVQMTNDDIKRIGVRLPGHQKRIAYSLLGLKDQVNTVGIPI

- Time EphA2 remained undetectable (EphA2): ≥ 24 h
B1: EA2: EphA2 agonistic monoclonal antibody; ATCC deposit no. PTA-4380; co-pending application Ser. No. 10/436,783; VL SEQ ID NO:33, VH SEQ ID NO:37 (antibody, listed as Homo Sapiens, V domains shown)
VH: DVKLVESGGGLVKPGGSLKLSCAASGFTFSSYTMSWVRQTPEKRLEWVATISSGGTYTYYPDSVKGRFTISRDNAKNTLYLQMSSLKSEDTAMYYCTREAIFTYWGQGTLVTVSA
VL: DIKMTQSPSSMYASLGERVTITCKASQDINNYLSWFQQKPGKSPKTLIYRANRLVDGVPSRFSGSGSGQDYSLTISSLEYEDMGIYYCLKYDEFPYTFGGGTKLEIK
- Growth of MDA-MB-231 cells implanted orthotopically [1]: inhibited
- Binding to EphA2 on MCF-10A cells with or without EGTA dissociation [2]: bound EphA2 on the EGTA dissociated cells but not the untreated cells; also recorded: preferentially binds EphA2 epitopes exposed by decreasing cell-cell contacts
- Effect of EA2 on tamoxifen response of control MCF-7 cells in soft agar (control MCF-7 cells): did not further alter this response
- EphA2 expression level (EphA2): Decreased levels of EphA2 expression were observed within two hours
